Reference: paper PMC5707411

Columns and labels:
[1] = target: full-length RSV F (TM, residues 1–574) from strain 18537 with the DS-Cav1 prefusion-stabilizing mutations (respiratory syncytial virus subtype B, strain 18537) (UniProt P13843)
[2] = target: prefusion-stabilized RSV F strain A2 (DS-Cav1); assay: SPR
[3] = target: RSV F (+) FdTHS based on strain A2 (wild-type A2 RSV F ectodomain fused to a C-terminal trimerization motif) (respiratory syncytial virus subtype A, strain A2) (UniProt Q4KRW9); assay: crystal structure; 5C4 Fab co-expressed with RSV F (+) FdTHS in Expi293, complex purified (Ni-NTA, Strep-Tactin, thrombin, Superose 6); crystal from 0.2 M ammonium acetate, 0.1 M Bis-Tris pH 6.5, 25% PEG 3350; 3.4 Å
D25 IgG [4] = assay: flow cytometry on cells; details: full-length pre-F variants expressed in Expi293 cells; parent: est. 0.14; read off a plot
5C4 IgG [5] = assay: flow cytometry on cells; details: full-length pre-F variants expressed in Expi293 cells; parent: est. 0.04; read off a plot
D25 IgG [6] = assay: flow cytometry on cells; details: full-length pre-F variants expressed in Expi293 cells, read off a plot
5C4 IgG [7] = assay: flow cytometry on cells; details: full-length pre-F variants expressed in Expi293 cells, read off a plot

| Substance | other: Relative binding (fractional binding relative to motavizumab) (D25 IgG [4]) | other: Relative binding (fractional binding relative to motavizumab) (5C4 IgG [5]) | other: Relative binding (fractional binding relative to motavizumab) (D25 IgG [6]; parent: est. 0.69) | other: Relative binding (fractional binding relative to motavizumab) (5C4 IgG [7]; parent: est. 0.75) | other results |
| --- | --- | --- | --- | --- | --- |
| 5C4 IgG (antibody) |  |  |  |  | EC50 of 5C4 neutralisation of mKate-RSV B strain 18537 wild-type virus on HEp-2 cells (viral F without DS-Cav1; antibody format not given) [1]: 9.15 µg/mL |
| D25 Fab |  |  |  |  | Kd [2]: < 0.0769 nM; koff [2]: < 1e-05 s⁻¹ |
| RSV F (+) FdTHS based on strain A2 (wild-type A2 RSV F ectodomain fused to a C-terminal trimerization motif) (from UniProt Q4KRW9 1-391) (complex) |  |  |  |  | stoichiometry N [3]: 3 |
| full-length RSV F (TM, residues 1–574) from strain 18537 with the DS-Cav1 prefusion-stabilizing mutations (from UniProt P13843) N200D | 0.33 | 0.01 |  |  |  |
| full-length RSV F (TM, residues 1–574) from strain 18537 with the DS-Cav1 prefusion-stabilizing mutations (from UniProt P13843) N201A |  |  |  |  | other: Relative binding (fractional binding relative to motavizumab) (D25 IgG [6]; parent: est. 0.14): 0.003; other: Relative binding (fractional binding relative to motavizumab) (5C4 IgG [7]; parent: est. 0.005): 0.01 |
| full-length RSV F (TM, residues 1–574) from strain 18537 with the DS-Cav1 prefusion-stabilizing mutations (from UniProt P13843) N201K | 0.35 | 0.52 |  |  | other: Relative binding (fractional binding relative to motavizumab) (D25 IgG [6]; parent: est. 0.14): 0.35; other: Relative binding (fractional binding relative to motavizumab) (5C4 IgG [7]; parent: est. 0.005): 0.44 |
| full-length RSV F (TM, residues 1–574) from strain 18537 with the DS-Cav1 prefusion-stabilizing mutations (from UniProt P13843) N201R |  |  |  |  | other: Relative binding (fractional binding relative to motavizumab) (D25 IgG [6]; parent: est. 0.14): 0.01; other: Relative binding (fractional binding relative to motavizumab) (5C4 IgG [7]; parent: est. 0.005): 0.4 |
| full-length RSV F (TM, residues 1–574) from strain 18537 with the DS-Cav1 prefusion-stabilizing mutations (from UniProt P13843) Q209K | 0.58 | 0.19 |  |  |  |
| full-length RSV F (TM, residues 1–574) from strain 18537 with the DS-Cav1 prefusion-stabilizing mutations (from UniProt P13843) R202Q | 0.37 | 0.01 |  |  |  |
| full-length RSV F (TM, residues 1–574) from strain 18537 with the DS-Cav1 prefusion-stabilizing mutations (from UniProt P13843) R213S | 0.05 | 0.01 |  |  |  |
| full-length RSV F (TM, residues 1–574) from strain 18537 with the DS-Cav1 prefusion-stabilizing mutations (from UniProt P13843) T67N | 0.53 | 0.15 |  |  |  |
| full-length RSV F (TM, residues 1–574) from strain 18537 with the DS-Cav1 prefusion-stabilizing mutations (from UniProt P13843) T74A | 0.13 | 0.01 |  |  |  |
| full-length RSV F (TM, residues 1–574) from strain A2 with the DS-Cav1 prefusion-stabilizing mutations A74T |  |  | 0.68 | 0.7 |  |
| full-length RSV F (TM, residues 1–574) from strain A2 with the DS-Cav1 prefusion-stabilizing mutations D200N |  |  | 0.67 | 0.74 |  |
| full-length RSV F (TM, residues 1–574) from strain A2 with the DS-Cav1 prefusion-stabilizing mutations K201A |  |  |  |  | other: Relative binding (fractional binding relative to motavizumab) (D25 IgG [6]; parent: est. 0.63): 0.64; other: Relative binding (fractional binding relative to motavizumab) (5C4 IgG [7]; parent: est. 0.60): 0.02 |
| full-length RSV F (TM, residues 1–574) from strain A2 with the DS-Cav1 prefusion-stabilizing mutations K201N |  |  | 0.67 | 0.01 | other: Relative binding (fractional binding relative to motavizumab) (D25 IgG [6]; parent: est. 0.63): 0.64; other: Relative binding (fractional binding relative to motavizumab) (5C4 IgG [7]; parent: est. 0.60): 0.012 |
| full-length RSV F (TM, residues 1–574) from strain A2 with the DS-Cav1 prefusion-stabilizing mutations K201R |  |  |  |  | other: Relative binding (fractional binding relative to motavizumab) (D25 IgG [6]; parent: est. 0.63): 0.64; other: Relative binding (fractional binding relative to motavizumab) (5C4 IgG [7]; parent: est. 0.60): 0.61 |
| full-length RSV F (TM, residues 1–574) from strain A2 with the DS-Cav1 prefusion-stabilizing mutations K209Q |  |  | 0.54 | 0.61 |  |
| full-length RSV F (TM, residues 1–574) from strain A2 with the DS-Cav1 prefusion-stabilizing mutations N67T |  |  | 0.61 | 0.6 |  |
| full-length RSV F (TM, residues 1–574) from strain A2 with the DS-Cav1 prefusion-stabilizing mutations Q202R |  |  | 0.63 | 0.73 |  |
| full-length RSV F (TM, residues 1–574) from strain A2 with the DS-Cav1 prefusion-stabilizing mutations S213R |  |  | 0.65 | 0.7 |  |
